# Ends that are not written are not given here.
# T1: human GIP receptor (human, UniProt P48546 22-466)
# T1 sequence (looked up): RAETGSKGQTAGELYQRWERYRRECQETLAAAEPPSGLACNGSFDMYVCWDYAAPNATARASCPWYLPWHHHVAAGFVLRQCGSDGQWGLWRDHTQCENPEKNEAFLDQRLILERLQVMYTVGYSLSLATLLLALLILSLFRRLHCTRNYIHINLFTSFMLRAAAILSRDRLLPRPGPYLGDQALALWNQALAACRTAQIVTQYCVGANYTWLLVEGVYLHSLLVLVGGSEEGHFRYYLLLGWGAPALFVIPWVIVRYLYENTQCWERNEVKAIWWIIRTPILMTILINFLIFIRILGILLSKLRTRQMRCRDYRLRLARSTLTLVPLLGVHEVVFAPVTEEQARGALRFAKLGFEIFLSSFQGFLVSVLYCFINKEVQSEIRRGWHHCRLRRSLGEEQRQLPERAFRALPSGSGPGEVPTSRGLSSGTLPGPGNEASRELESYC
# T2: mouse GLP-1 receptor (mouse, UniProt O35659 22-463)
# T2 sequence (looked up): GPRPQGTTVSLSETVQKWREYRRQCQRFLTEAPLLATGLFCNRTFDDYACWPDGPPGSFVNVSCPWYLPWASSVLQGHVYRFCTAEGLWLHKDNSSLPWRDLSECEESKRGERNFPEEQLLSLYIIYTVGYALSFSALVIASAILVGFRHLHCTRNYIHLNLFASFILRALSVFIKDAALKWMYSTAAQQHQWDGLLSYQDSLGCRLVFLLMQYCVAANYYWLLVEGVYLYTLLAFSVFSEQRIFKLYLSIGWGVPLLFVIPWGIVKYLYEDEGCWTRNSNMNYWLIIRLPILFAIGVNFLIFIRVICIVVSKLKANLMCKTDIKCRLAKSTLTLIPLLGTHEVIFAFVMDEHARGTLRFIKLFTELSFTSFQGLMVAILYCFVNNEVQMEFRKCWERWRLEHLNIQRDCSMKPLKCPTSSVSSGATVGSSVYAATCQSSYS
# T3: rat GLP-1 receptor (rat, UniProt P32301 22-463)
# T3 sequence (looked up): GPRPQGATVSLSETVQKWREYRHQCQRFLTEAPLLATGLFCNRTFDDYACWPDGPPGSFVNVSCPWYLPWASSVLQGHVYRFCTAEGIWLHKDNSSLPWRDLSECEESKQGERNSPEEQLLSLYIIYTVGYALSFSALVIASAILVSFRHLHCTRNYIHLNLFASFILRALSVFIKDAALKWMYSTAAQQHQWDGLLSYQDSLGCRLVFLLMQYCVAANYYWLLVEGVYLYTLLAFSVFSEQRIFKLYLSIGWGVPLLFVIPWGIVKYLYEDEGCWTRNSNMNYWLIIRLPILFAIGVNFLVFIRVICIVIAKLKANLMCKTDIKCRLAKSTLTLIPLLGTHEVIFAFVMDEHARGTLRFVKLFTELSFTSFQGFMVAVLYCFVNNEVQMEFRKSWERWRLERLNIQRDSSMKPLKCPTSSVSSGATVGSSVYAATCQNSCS
# T4: rat GIP receptor (rat, UniProt P43219 19-455)
# T4 sequence (looked up): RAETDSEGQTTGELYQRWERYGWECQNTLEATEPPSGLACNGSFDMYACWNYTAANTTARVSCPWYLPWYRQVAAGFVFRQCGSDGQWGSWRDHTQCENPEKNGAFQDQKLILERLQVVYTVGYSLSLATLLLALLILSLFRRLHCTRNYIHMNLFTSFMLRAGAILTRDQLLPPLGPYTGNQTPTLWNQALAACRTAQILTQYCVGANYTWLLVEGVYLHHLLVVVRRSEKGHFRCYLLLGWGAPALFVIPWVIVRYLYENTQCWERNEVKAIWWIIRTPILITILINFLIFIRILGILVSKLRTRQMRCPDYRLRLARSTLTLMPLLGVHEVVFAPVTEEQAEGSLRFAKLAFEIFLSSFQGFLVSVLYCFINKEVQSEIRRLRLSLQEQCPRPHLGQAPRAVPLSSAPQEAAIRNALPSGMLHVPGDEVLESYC
# T5: mouse GIP receptor (mouse, UniProt Q0P543 19-460)
# T5 sequence (looked up): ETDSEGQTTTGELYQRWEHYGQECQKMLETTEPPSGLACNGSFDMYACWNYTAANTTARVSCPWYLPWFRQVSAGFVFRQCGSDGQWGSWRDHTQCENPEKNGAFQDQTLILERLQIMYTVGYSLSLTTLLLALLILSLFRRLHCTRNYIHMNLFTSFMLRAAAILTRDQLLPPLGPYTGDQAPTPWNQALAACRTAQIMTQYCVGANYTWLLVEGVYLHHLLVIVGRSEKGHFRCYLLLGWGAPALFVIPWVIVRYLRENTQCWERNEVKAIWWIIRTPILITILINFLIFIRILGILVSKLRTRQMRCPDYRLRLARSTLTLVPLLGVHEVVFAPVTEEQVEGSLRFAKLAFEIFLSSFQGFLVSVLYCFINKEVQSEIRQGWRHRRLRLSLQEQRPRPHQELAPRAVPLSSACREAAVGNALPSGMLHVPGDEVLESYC
# Assays:
# Experiment in all cases: cell-based or functional assay
# human GLP-1 receptor = human GLP-1 receptor (human, UniProt P43220 24-463)
# human glucagon receptor = human glucagon receptor (human, UniProt P47871 26-477)
# human GIP receptor = target: T1, human GIP receptor
# mouse GLP-1 receptor = target: T2, mouse GLP-1 receptor
# rat GLP-1 receptor = target: T3, rat GLP-1 receptor
# rat GIP receptor = target: T4, rat GIP receptor
# mouse GIP receptor = target: T5, mouse GIP receptor
Binder,cAMP EC50 (human GLP-1 receptor) [nM],cAMP EC50 (human glucagon receptor) [nM],cAMP EC50 (human GIP receptor) [nM],cAMP EC50 (mouse GLP-1 receptor) [nM],cAMP EC50 (rat GLP-1 receptor) [nM],cAMP EC50 (rat GIP receptor) [nM],cAMP EC50 (mouse GIP receptor) [nM],further results
IP024 (Fc fusion) YSEGTFTSDYSKLLEEEAVRLFIEWLLAGAAAGGSGSTASSGSGSATGGGGAATHTCPPCPAPEF,0.095,17,0.0071,1.1,0.083,0.047,,"cAMP EC50, Batch 2 (human GLP-1 receptor): 0.16 nM; cAMP EC50, Batch 2 (human glucagon receptor): 25 nM; cAMP EC50, Batch 2 (human GIP receptor): 0.01 nM"
IP222 (Fc fusion) YSEGTFTSDYSKLLEEEAVRLFIEWLKNGGPSSGAPPPSAAAGGSGSTASSGSGSATGGGGAATHTCPPCPAPEF,0.14,590,0.015,0.46,0.058,0.72,160,
IP147 (Fc fusion) YSEGTFTSDYSKLLEEEAVRLFIEWLVKGPAPPGGSGSTASSGSGSATGGGGAATHTCPPCPAPEF,0.067,130,0.0037,8.5,1.1,6.8,,
IP149 (Fc fusion) YSQGTFTSDYSKLLEEEAVRLFIEWLVKGPAPPGGSGSTASSGSGSATGGGGAATHTCPPCPAPEF,0.07,0.2,0.0081,,,,,"cAMP EC50, Batch 2 (human GLP-1 receptor): 0.12 nM; cAMP EC50, Batch 2 (human glucagon receptor): 0.23 nM; cAMP EC50, Batch 2 (human GIP receptor): 0.012 nM; cAMP EC50, Batch 2 (mouse GLP-1 receptor): 0.37 nM; cAMP EC50, Batch 2 (mouse GIP receptor): 53 nM; cAMP EC50, Batch 2 (rat GLP-1 receptor): 0.031 nM; cAMP EC50, Batch 2 (rat GIP receptor): 0.19 nM"
"IP235 (Fc fusion, cysteine pairing not given here; also: fused to IgG1-TM Fc) YSEGTFTSDYSKLLEEEAVRLFIEWLVKGPGGGGGSGGGGSATHTCPPCPAPEF",0.23,> 9900,0.021,0.6,0.037,0.65,2600,
"IP236 (Fc fusion, cysteine pairing not given here; also: fused to IgG1-TM Fc) YSEGTFTSDYSKLLEEEAVRLFIEWLVKGPGGGGGSGGGGSGGGGSATHTCPPCPAPEF",0.15,> 5500,0.016,0.3,0.024,0.21,460,
IP237 (Fc fusion) YSEGTFTSDYSKLLEEEAVRLFIEWLVKGPGGGGGSGGGGSGGGGSGGGGSATHTCPPCPAPEF,0.095,> 1800,0.012,0.29,0.023,0.14,170,
IP245 (Fc fusion) YSEGTFTSDYSIAMDEEAVRLFIEWLVKGPAAAGGSGSTASSGSGSATGGGGAATHTCPPCPAPEF,0.46,,0.15,4.8,0.4,48,190,
IP085 (Fc fusion) YSEGTFTSDYSKLLEEEAVRLFIEWLLAGAPPGGSGSTASSGSGSATGGGGAATHTCPPCPAPEF,0.15,7.1,0.0099,0.95,0.1,0.15,0.72,"cAMP EC50, Batch 4 (human GLP-1 receptor): 0.1 nM; cAMP EC50, Batch 4 (human glucagon receptor): 3.6 nM; cAMP EC50, Batch 4 (human GIP receptor): 0.0065 nM; cAMP EC50, Batch 4 (mouse GLP-1 receptor): 0.58 nM; cAMP EC50, Batch 4 (mouse GIP receptor): 0.21 nM; cAMP EC50, Batch 4 (rat GLP-1 receptor): 0.023 nM; cAMP EC50, Batch 4 (rat GIP receptor): 0.031 nM"
IP257 (Fc fusion) SEGTFTSDYSKLLEEEAVRLFIEWLVKGPGGGGGSGGGGSGGGGSGGGGSATHTCPPCPAPEF,7.2,,180,46,1.3,190,4300,
IP127 (Fc fusion) YSEGTFTSDVSSYLEEEAVREFIEWLLAGGAAAGGSGSTASSGSGSATGGGGAATHTCPPCPAPEF,0.087,,0.12,0.6,0.047,17,,
IP244 (Fc fusion) YSEGTFTSDVSKLLEEEAVRLFIEWLLAGAPPGGSGSTASSGSGSATGGGGAATHTCPPCPAPEF,0.18,,0.042,0.79,0.066,0.17,3.6,
IP124 (Fc fusion) YSEGTFTSDYSKLLEEEAVRLFIEWLVKGAAAGGSGSTASSGSGSATGGGGAATHTCPPCPAPEF,0.091,,0.009,0.42,0.062,0.31,130,
IP249 (Fc fusion) YSEGTFTSDYSKLLEEEAVRLFIEWLLAQKAAAGGSGSTASSGSGSATGGGGAATHTCPPCPAPEF,2.6,,0.019,15,0.15,0.19,180,
IP383 (Fc fusion) YSEGTFTSLYRILLEEEAVRLFIEWLLAGGGGGGSGGGGSGGGGSGGGGSATHTCPPC,0.19,> 1610,,20.1,0.13,0.976,46.7,
IP228 (Fc fusion) YSEGTFTSDYSKLLEEEAVRLFIEWLKNGGAAAGGSGSTASSGSGSATGGGGAATHTCPPCPAPEF,0.16,1400,0.014,0.69,0.096,7,,
